This is an account of results in US20260265379A1.

First the molecules themselves.
B1: bsAb020 (bispecific antibody)
heavy: DIQMTQSPSSLSASVGDRVTITCHASQNINVWLSWYQQKPGKAPKLLIYKASNLHTGVPSRFTGSGSGTDFTFTISSLQPEDIATYYCQQGQTYPYTFGQGTKLEIKGGGGSGGGGSGGGGSGGGGSQVQLVQSGAEVKKPGASVKLSCKASGYIFTRYYMYWVKQRPGQGLEWIGEINPNNGGTKFNEKFKNRATLTVDKSISTAYMELSRLRSDDTAVYYCSREDDYDGTPFAMDYWGQGTLVTVSSGGGGSGGGGSGGGGSGGGGSEVQLVESGGGLVQPGGSLRLSCAASGFTFSRYWMSWVRQAPGKGLEWVANIKQDGSEKYYVDSVKGRFTISRDNAKNSLYLQMNSLRAEDTAVYYCAREGGWFGELAFDYWGQGTLVTVSSASTKGPSVFPLAPSSKSTSGGTAALGCLVKDYFPEPVTVSWNSGALTSGVHTFPAVLQSSGLYSLSSVVTVPSSSLGTQTYICNVNHKPSNTKVDKRVEPKSCDKTHTCPPCPAPEFEGGPSVFLFPPKPKDTLMISRTPEVTCVVVDVSHEDPEVKFNWYVDGVEVHNAKTKPREEQYNSTYRVVSVLTVLHQDWLNGKEYKCKVSNKALPASIEKTISKAKGQPREPQVYTLPPSREEMTKNQVSLTCLVKGFYPSDIAVEWESNGQPENNYKTTPPVLDSDGSFFLYSKLTVDKSRWQQGNVFSCSVMHEALHNHYTQKSLSLSPG
light: EIVLTQSPGTLSLSPGERATLSCRASQRVSSSYLAWYQQKPGQAPRLLIYDASSRATGIPDRFSGSGSGTDFTLTISRLEPEDFAVYYCQQYGSLPWTFGQGTKVEIKRTVAAPSVFIFPPSDEQLKSGTASVVCLLNNFYPREAKVQWKVDNALQSGNSQESVTEQDSKDSTYSLSSTLTLSKADYEKHKVYACEVTHQGLSSPVTKSFNRGEC
B2: bsAb024 (bispecific antibody)
heavy: QVQLVQSGAEVKKPGASVKLSCKASGYIFTRYYMYWVKQRPGQGLEWIGEINPNNGGTKFNEKFKNRATLTVDKSISTAYMELSRLRSDDTAVYYCSREDDYDGTPFAMDYWGQGTLVTVSSGGGGSGGGGSGGGGSGGGGSDIQMTQSPSSLSASVGDRVTITCHASQNINVWLSWYQQKPGKAPKLLIYKASNLHTGVPSRFTGSGSGTDFTFTISSLQPEDIATYYCQQGQTYPYTFGQGTKLEIKGGGGSGGGGSGGGGSGGGGSEVQLVESGGGLVQPGGSLRLSCAASGFTFSRYWMSWVRQAPGKGLEWVANIKQDGSEKYYVDSVKGRFTISRDNAKNSLYLQMNSLRAEDTAVYYCAREGGWFGELAFDYWGQGTLVTVSSASTKGPSVFPLAPSSKSTSGGTAALGCLVKDYFPEPVTVSWNSGALTSGVHTFPAVLQSSGLYSLSSVVTVPSSSLGTQTYICNVNHKPSNTKVDKRVEPKSCDKTHTCPPCPAPEFEGGPSVFLFPPKPKDTLMISRTPEVTCVVVDVSHEDPEVKFNWYVDGVEVHNAKTKPREEQYNSTYRVVSVLTVLHQDWLNGKEYKCKVSNKALPASIEKTISKAKGQPREPQVYTLPPSREEMTKNQVSLTCLVKGFYPSDIAVEWESNGQPENNYKTTPPVLDSDGSFFLYSKLTVDKSRWQQGNVFSCSVMHEALHNHYTQKSLSLSPG
light: B1 light
B3: bsAb054 (bispecific antibody, not shown: small tags and cut ends)
heavy (part 1 of 2): EVQLVESGGGLVQPGGSLRLSCAASGFTFSRYWMSWVRQAPGKGLEWVANIKQDGSEKYYVDSVKGRFTISRDNAKNSLYLQMNSLRAEDTAVYYCAREGGWFGELAFDYWGQGTLVTVSS
heavy (part 2 of 2): GGGGSGGGGSGGGGSGGGGSQVQLVQSGAEVKKPGASVKLSCKASGYIFTRYYMYWVKQRPGQGLEWIGEINPNNGGTKFNEKFKNRATLTVDKSISTAYMELSRLRSDDTAVYYCSREDDYDGTPFAMDYWGQGTLVTVSSGGGGSGGGGSGGGGSGGGGSDIQMTQSPSSLSASVGDRVTITCHASQNINVWLSWYQQKPGKAPKLLIYKASNLHTGVPSRFTGSGSGTDFTFTISSLQPEDIATYYCQQGQTYPYTFGQGTKLEIK
heavy: B3 heavy (part 1 of 2)
light: B1 light
B4: bsAb041 (bispecific antibody, not shown: small tags and cut ends; a dimerising Fc or GST)
heavy (part 1 of 2): B3 heavy (part 1 of 2)
heavy (part 2 of 2): GGGGSGGGGSGGGGSGGGGSDIQMTQSPSSLSASVGDRVTITCHASQNINVWLSWYQQKPGKAPKLLIYKASNLHTGVPSRFTGSGSGTDFTFTISSLQPEDIATYYCQQGQTYPYTFGQGTKLEIKGGGGSGGGGSGGGGSGGGGSQVQLVQSGAEVKKPGASVKLSCKASGYIFTRYYMYWVKQRPGQGLEWIGEINPNNGGTKFNEKFKNRATLTVDKSISTAYMELSRLRSDDTAVYYCSREDDYDGTPFAMDYWGQGTLVTVSS
heavy: B4 heavy (part 2 of 2)
light: B1 light
B5: bsAb036 (bispecific antibody, not shown: small tags and cut ends; a dimerising Fc or GST)
heavy (part 1 of 2): B3 heavy (part 1 of 2)
heavy (part 2 of 2): B3 heavy (part 2 of 2)
heavy: B3 heavy (part 2 of 2)
light: B1 light

In this assay the target is BTN3A expressed at the cell surface (human), O00481. As to the kind of experiment: cell-based or functional assay.
Chain of BTN3A expressed at the cell surface (human), O00481 (O00481 30-513): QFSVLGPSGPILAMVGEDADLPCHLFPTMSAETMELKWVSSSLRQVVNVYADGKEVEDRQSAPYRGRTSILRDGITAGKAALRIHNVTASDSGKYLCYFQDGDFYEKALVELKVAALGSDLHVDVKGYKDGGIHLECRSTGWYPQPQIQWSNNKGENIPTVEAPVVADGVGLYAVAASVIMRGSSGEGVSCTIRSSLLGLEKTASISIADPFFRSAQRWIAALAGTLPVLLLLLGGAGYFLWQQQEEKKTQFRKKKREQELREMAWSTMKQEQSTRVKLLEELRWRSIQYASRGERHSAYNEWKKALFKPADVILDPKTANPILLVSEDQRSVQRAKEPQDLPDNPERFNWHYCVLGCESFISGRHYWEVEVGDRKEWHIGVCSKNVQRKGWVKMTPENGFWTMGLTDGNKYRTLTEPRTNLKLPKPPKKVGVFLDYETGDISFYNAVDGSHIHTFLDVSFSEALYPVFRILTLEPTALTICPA
Consider B1, for which the Jurkat-Vy9Vo2 TCR MOP activation at 0.5 nM (fold-change to medium) stood at 1.1 and the Jurkat-Vy9Vo2 TCR MOP activation at 5 nM (fold-change to medium) turned out to be 1.
The like results for B2 were, in that order, 1 and 1.
On to B3, for which the Jurkat-Vy9Vo2 TCR MOP activation at 0.5 nM (fold-change to medium) amounted to 2.8 and the Jurkat-Vy9Vo2 TCR MOP activation at 5 nM (fold-change to medium) was determined as 1.
On the same counts, the results for B4 are 0.9 and 1.
On the same counts, the results for B5 are 0.9 and 0.9.
